Data: patent EP4806514A2 (Lepu Biopharma Co., Ltd., dated 2025)

Biological target: T1, human CDH6-his protein (Katcus, Cat. No. CDH-HM106) (human, UniProt P55285 54-615, limits assumed)
T1 construct: Bought; also called human CDH6 protein
T1 sequence (looked up): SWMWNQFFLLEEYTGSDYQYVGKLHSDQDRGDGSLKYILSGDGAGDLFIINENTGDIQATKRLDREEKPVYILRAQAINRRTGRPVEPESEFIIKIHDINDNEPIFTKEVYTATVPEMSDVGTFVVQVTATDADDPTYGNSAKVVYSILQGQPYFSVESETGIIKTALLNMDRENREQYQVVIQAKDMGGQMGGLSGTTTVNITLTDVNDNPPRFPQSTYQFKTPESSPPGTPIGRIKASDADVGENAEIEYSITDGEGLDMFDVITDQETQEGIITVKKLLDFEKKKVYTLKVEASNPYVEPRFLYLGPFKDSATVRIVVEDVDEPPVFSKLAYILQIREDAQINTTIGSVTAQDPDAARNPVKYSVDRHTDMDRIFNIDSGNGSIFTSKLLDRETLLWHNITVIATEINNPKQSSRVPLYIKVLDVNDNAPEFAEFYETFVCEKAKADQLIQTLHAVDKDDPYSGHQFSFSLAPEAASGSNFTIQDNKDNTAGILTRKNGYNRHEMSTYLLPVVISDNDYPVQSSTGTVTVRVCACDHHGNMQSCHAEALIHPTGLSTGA
Test: ELISA, antigen coated at 1 ug/mL

B1: 29H8D3-z12 (antibody, V domains shown)
VH: QVQLVQSGAEVKKPGASVKVSCKASGYTFTDHTIHWMRQRPGQGLEWIGYIYPRDGYTKYNEKFKDRATLTADTSTSTAYMELRSLRSDDTAVYYCARFYYGYWYFDVWGQGTTVTVSS
VL: DIVMTQSPLSLPVTPGEPASISCRSSKSLLRSNGNTYLYWFLQKPGQSPQVLIYRMSNLASGVPDRFSGSGSGTDFTLKISRVEAEDVGVYYCMQHLEYPFTFGQGTKLEIK
notes: Humanized, human IgG1 constant region; also called 29H8D3-z12 mAb
binding result: no binding (tested: titrated from 50 nM)
